Laboratory results: US20260199458A1 (INCENDIA THERAPEUTICS, published 2026)
Where “and” joins values, the source holds several entries; their conditions need not be identical. Identical values can stand only once.

Tests used:
[1] = target: T1, Cynomolgus monkey DDR1 extracellular domain (cynomolgus monkey, UniProt A0A2K5V739 47-443); assay: Biacore, DDR1 extracellular domain
T1 construct: extracellular domain; also called Cyno DDR1
T1 sequence: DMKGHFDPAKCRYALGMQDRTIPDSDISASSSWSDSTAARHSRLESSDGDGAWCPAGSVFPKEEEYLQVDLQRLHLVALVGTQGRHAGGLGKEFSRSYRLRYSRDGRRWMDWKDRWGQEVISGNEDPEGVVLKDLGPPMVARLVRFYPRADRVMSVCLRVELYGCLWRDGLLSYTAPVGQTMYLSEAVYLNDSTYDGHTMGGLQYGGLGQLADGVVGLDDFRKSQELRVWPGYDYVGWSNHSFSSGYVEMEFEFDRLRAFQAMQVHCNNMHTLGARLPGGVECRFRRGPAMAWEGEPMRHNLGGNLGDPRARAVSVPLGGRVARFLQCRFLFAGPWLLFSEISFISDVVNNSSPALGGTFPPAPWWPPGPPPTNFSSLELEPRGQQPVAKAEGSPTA
Description: (§1) First, 9H-1 was tested for its affinity to DDR1 protein from human, mouse, rat, and cynomolgus monkey.

[2] = target: T2, Rat DDR1 extracellular domain (rat, UniProt Q63474 22-414); assay: Biacore, DDR1 extracellular domain
T2 construct: extracellular domain
T2 sequence (looked up): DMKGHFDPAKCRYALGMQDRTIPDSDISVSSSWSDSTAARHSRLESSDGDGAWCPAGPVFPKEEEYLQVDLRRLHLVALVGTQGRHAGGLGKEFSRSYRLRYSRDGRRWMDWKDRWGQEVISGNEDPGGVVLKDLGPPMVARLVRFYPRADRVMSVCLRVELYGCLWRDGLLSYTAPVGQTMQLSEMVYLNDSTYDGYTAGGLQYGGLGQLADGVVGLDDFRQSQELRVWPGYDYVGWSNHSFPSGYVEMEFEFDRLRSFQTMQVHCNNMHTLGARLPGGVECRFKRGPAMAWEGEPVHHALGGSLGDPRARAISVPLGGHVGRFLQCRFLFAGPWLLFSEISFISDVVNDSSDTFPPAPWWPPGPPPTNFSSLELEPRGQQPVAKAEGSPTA
Description: as §1

[3] = target: T3, Mouse DDR1 extracellular domain (mouse, UniProt Q03146 22-415); assay: Biacore, DDR1 extracellular domain
T3 construct: extracellular domain
T3 sequence (looked up): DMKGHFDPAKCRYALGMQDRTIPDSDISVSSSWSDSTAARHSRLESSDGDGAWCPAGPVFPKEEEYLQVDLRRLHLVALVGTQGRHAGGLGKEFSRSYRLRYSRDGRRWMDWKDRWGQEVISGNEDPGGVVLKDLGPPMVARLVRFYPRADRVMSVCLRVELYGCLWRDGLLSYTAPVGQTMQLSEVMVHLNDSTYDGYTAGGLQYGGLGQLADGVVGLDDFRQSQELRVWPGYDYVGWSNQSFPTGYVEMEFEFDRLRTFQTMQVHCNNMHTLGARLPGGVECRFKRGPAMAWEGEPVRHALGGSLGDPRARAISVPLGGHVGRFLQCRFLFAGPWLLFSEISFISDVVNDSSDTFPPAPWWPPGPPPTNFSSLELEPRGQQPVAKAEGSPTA
Description: as §1

[4] = target: T4, Human DDR1 extracellular domain (human, UniProt Q08345 21-417); assay: Biacore, DDR1 extracellular domain
T4 construct: extracellular domain
Description: as §1

[5] = target: T4, Human DDR1 extracellular domain; assay: Biacore, DDR1 extracellular domain; KD in mass units (ng/mL), same fit as the 1.36 nM of r7c2
Description: as §1

B1: 9H-1 (humanized DDR1-9, WT IgG1 Fc) (antibody, V domains shown)
VH: QVQLVESGGRVVQPGRSLRLSCTASGFSLNRYYMLWVRQAPGKGLEWIGTISYGDTTYYASWAKGRFTISRDNSKNTLYLQMNSLRAEDTAVYYCARADTGDNGYLGLQLWGQGTLVTVSS
VL: DIQMTQSPSSVSASVGDRVTITCQASQSIGSVLAWYQQKPGKAPKLLISGVFDLASGVPSRFSGSGSGTDFTLTISSLQPEDFATYYCQYIPYGSSPFGGGTKVEIKR
notes: In some embodiments the heavy chain lacks the terminal lysine; also called PRTH-101; humanized DDR1-9 (9H-1)_1 WT IgG1 Fc
- Kd [1]: 1.3 nM and 0.195 µg/mL
- koff [1]: 0.00015 s⁻¹
- kon [1]: 116000 M⁻¹ s⁻¹
- t1/2 [1]: 1.28 h
- Kd [2]: 2.28 nM and 0.342 µg/mL
- koff [2]: 0.000455 s⁻¹
- kon [2]: 199000 M⁻¹ s⁻¹
- t1/2 [2]: 1520 s
- Kd [3]: 16.9 nM and 2.54 µg/mL
- koff [3]: 0.00397 s⁻¹
- kon [3]: 235000 M⁻¹ s⁻¹
- t1/2 [3]: 174 s
- Kd [4]: 1.36 nM
- koff [4]: 0.000181 s⁻¹
- kon [4]: 133000 M⁻¹ s⁻¹
- t1/2 [4]: 1.07 h
- Kd [5]: 0.204 µg/mL
